Measured values as given in patent US20090005659A1, “Tissue Ablation by Shear Force for Sampling Biological Fluids and Delivering Active Agents” (priority 2000, published 2009).
Several values for one entry are separate records, joined by “and”; a condition that tells them apart may be missing. Equal entries are not always repeated.

Tests used:
female Yorkshire pigs [1] = assay: Subcutaneous injection of insulin (control experiment): blood glucose and plasma insulin profiles; assay type: in vivo, pig; settings: four pigs
Description: The subcutaneous administration of insulin provides a dose response to which a comparative measure of transdermally delivered insulin can be made. An insulin dose of 5 IU insulin (Regular Iletin® II, Insulin Injection, USP, Purified Pork, Eli Lilly and Company, Indianapolis, Ind., USA) was subcutaneously injected in the rear mid-ventral area of each of four female Yorkshire pigs (weight: 22-26 kg) with a 1 cc Sub-Q Precision Glide® Needle (Becton-Dickinson and Company, Franklin Lakes, N.J., USA).
As the insulin concentrations went back to its basal concentration (FIG. 5b), the blood glucose concentrations also were gradually returned toward its pre-insulin injection level (FIG. 5a).

female Yorkshire pigs [2] = assay: Transdermal delivery of insulin by passive diffusion following shear perforation of the skin; assay type: in vivo, pig
Protocol: Two female Yorkshire pigs of the same body weight range as those in Example 2 were immobilized with anesthetics. The test site on the side of the chest was prepared by clipping lightly off the hair and cleaning with an alcohol wipe. Special care was taken not to damage the skin. Shear perforation of the pig skin was performed with a Remington shaver (Remington Microscreen 1®, Remington, Bridgeport, Conn., USA) by pressing its screen firmly on the skin for about 1 second. This procedure was repeated at an adjacent skin site until 10 cm^2 of the skin was shear-perforated. Only slight erythema was observed on the test site. A drug reservoir patch made of silicone rubber (Silastic® Sheet, Medical Grade, Dow Corning Corp., Midland, Mich., USA) was affixed to the test skin with silicone adhesive (Secure® Adhesive, BT-401, Factor II, Inc., Lakeside, Ariz., USA). […] The thickness of the drug reservoir was 0.5 mm. An insulin solution (0.5 ml, Regular Iletin® II, Insulin Injection, USP, Purified Pork, Eli Lilly and Company, Indianapolis, Ind., USA) was placed into the drug reservoir which covered the shear-perforated skin to allow insulin molecules to enter the pig body through the pores on the stratum corneum driven by insulin concentration gradient. Transdermal insulin delivery was conducted in this way for 50 minutes. Insulin delivery was then terminated by removing the insulin patch. Blood samples were taken from the pigs prior to, during, and after transdermal insulin delivery for determination of blood glucose and insulin concentrations.

[3] = test system: intact skin of human and swine; assay: Penetration of insulin into intact skin (own experiment, result not shown); assay type: in vivo; settings: no shear perforation
Description: The stratum corneum is recognized as the primary barrier to percutaneous absorption of drug applied to the skin surface. The densely structured outmost skin layer consisting of flattened and keratinized dead skin cells provides a formidable permeation barrier to most small and virtually all large compounds. […] Our own experiment confirmed this (result not shown). This example investigates in vivo transdermal delivery of insulin into swine following application of shear perforation to remove the stratum corneum barrier at the test site.

pigs = assay: Swine glucose monitoring study: subcutaneous fast-acting insulin, blood glucose; assay type: in vivo, pig; settings: 2 IU subcutaneous, four pigs
Protocol: A swine study was conducted for glucose measurements in both capillary blood and ISF extracted from the micropores generated by the shear perforation procedure as described in Example 3. Briefly, subcutaneous injections of fast-acting insulin (2 IU, Regular Iletin® II, U-100, Pork, Eli Lilly, Indianapolis, Ind.) were administered to four pigs. […] Glucose changes in the blood were monitored periodically using One Touch® Basic glucose meter (LifeScan, Inc., Milpitas, Calif.) on blood samples from the ear vein. ISF samples were obtained by application of a weak suction to the micropores on the skin with an Asoivenin® suction device (ASPIR, Sannois, France). The ISF samples collected throughout the whole experiment were tested for glucose using both a FastTake® and One Touch® Basic glucose meter blood glucose meters (LifeScan, Inc., Milpitas, Calif.) as wells as an YSI glucose analyzer (Model 2700 Select Biochemistry Analyzer, YSI Inc., Yellow Springs, Ohio). A calibration procedure was conducted for the two home-use glucose meters (i.e., the One Touch® and FastTake® meters) against the YSI glucose analyzer using aqueous glucose solutions of various concentrations.

With insulin the peak insulin concentrations (female Yorkshire pigs [1]; 5 IU insulin subcutaneous injection, plasma, FIG. 5b) was 31-55 μIU/ml, the blood glucose concentration (female Yorkshire pigs [1]; 5 IU insulin subcutaneous, FIG. 5a) was “rapid reduction in blood glucose concentration” and the blood glucose (female Yorkshire pigs [2]; 0.5 ml insulin solution patch over 10 cm^2 shear-perforated skin, 50 minutes, two pigs, FIG. 6a) was “Drastic reduction in the blood glucose”. For the same substance, the “time for blood glucose concentrations to return to a near normal level” value (female Yorkshire pigs [2]; transdermal insulin over shear-perforated skin, 50 minutes delivery, two pigs) was “about 5 hours”, the “peak plasma insulin concentrations” value (female Yorkshire pigs [2]; transdermal, shear-perforated skin 10 cm^2, one value per pig, FIG. 6b) was 50 μIU/ml and 90 μIU/ml and the “time of peak plasma insulin concentration” value (female Yorkshire pigs [2]; transdermal, shear-perforated skin, peak at the end of delivery) was 50 min. For the same substance, the “penetration into intact skin” value [3] was “cannot penetrate into the intact skin” and the blood glucose concentration (pigs) was “significant reduction in the blood glucose concentration”.
